Data from patent US20220010021A1 (Sanofi, published 2022).
Where a chain is given by its changes, count along the chain named. Names and notes keep the numbering of the source.

B1: 16H7 variant with light chain substitution Q88A (antibody, V domains shown)
VH: not shown
VL: SYVLTQPPSVSVAPGQTARITCGGNNIGSESVHWYQQKPGQAPVLVVYDDSDRPSGIPERFSGSNSGNTATLTISRVEAGDEADYYCAVWDGNSDHVVFGGGTKLTVLG
B2: 16H7 variant with light chain substitution Q88G (antibody, V domains shown)
VH: not shown
VL: B1 VL with A88G
B3: 16H7 variant with light chain substitution Q88L (antibody, V domains shown)
VH: not shown
VL: B1 VL with A88L
B4: 16H7 variant with light chain substitution Q88M (antibody, V domains shown)
VH: not shown
VL: B1 VL with A88M

Columns and labels:
[1] = biological target: T1, human beta-Klotho (KLB) (human, UniProt Q86Z14 53-997); assay: BLI off-rate screen
T1 construct: bought recombinant protein, analyte of the BLI off-rate screen; also called human KLB
T1 sequence (looked up): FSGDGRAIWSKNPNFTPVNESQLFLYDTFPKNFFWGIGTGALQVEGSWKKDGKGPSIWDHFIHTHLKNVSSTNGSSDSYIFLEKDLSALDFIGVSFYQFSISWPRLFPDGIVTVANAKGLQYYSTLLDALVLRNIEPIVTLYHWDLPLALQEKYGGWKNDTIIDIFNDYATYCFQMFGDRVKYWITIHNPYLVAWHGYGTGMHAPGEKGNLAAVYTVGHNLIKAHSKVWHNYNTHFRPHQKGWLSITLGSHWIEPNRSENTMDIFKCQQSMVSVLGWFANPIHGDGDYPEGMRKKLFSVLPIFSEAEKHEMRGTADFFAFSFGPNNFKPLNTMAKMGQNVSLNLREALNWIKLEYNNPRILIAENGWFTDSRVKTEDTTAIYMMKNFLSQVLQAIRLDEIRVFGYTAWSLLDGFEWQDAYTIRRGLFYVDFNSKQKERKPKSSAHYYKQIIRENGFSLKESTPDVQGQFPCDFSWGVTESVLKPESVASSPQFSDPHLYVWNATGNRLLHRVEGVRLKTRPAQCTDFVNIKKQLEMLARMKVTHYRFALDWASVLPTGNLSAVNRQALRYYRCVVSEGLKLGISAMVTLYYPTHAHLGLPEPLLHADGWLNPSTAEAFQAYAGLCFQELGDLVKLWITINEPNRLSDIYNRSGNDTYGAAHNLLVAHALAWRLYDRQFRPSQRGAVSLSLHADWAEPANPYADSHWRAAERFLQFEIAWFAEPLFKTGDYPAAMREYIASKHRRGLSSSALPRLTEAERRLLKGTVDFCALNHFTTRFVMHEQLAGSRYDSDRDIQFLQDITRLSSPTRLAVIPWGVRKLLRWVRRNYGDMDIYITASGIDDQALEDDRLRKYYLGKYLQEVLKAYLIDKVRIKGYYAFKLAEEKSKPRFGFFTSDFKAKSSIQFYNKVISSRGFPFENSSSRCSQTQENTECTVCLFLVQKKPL

[2] = biological target: cell surface receptor composed of FGFR1c and co-receptor beta-Klotho (KLB) on iLite FGF21 Assay Ready Cells (human, UniProt P11362 22-822; Q86Z14 1-1044); assay: cell-based or functional assay
Sequence of cell surface receptor composed of FGFR1c and co-receptor beta-Klotho (KLB) on iLite FGF21 Assay Ready Cells (P11362 22-822, chain 1 of 2): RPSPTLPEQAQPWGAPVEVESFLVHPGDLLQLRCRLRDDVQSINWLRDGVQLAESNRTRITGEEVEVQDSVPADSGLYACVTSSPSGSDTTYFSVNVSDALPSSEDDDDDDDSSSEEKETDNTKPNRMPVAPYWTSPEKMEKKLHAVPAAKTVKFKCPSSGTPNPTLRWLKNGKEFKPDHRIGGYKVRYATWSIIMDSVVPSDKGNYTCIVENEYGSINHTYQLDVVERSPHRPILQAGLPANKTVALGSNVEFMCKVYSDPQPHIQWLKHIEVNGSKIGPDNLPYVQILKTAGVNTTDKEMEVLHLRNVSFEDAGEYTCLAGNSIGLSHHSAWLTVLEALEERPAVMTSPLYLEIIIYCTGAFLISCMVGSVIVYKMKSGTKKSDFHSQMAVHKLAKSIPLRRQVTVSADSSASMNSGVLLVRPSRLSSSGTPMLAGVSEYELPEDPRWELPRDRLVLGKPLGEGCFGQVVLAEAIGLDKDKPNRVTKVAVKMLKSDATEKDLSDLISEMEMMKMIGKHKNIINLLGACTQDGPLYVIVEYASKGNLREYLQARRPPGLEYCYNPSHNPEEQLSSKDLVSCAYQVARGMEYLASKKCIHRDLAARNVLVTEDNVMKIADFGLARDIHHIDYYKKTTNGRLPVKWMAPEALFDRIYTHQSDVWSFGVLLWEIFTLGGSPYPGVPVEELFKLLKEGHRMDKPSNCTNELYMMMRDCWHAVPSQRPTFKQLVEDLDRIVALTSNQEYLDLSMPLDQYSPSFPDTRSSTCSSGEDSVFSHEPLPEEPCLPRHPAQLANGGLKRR
Sequence of cell surface receptor composed of FGFR1c and co-receptor beta-Klotho (KLB) on iLite FGF21 Assay Ready Cells (Q86Z14 whole entry, chain 2 of 2): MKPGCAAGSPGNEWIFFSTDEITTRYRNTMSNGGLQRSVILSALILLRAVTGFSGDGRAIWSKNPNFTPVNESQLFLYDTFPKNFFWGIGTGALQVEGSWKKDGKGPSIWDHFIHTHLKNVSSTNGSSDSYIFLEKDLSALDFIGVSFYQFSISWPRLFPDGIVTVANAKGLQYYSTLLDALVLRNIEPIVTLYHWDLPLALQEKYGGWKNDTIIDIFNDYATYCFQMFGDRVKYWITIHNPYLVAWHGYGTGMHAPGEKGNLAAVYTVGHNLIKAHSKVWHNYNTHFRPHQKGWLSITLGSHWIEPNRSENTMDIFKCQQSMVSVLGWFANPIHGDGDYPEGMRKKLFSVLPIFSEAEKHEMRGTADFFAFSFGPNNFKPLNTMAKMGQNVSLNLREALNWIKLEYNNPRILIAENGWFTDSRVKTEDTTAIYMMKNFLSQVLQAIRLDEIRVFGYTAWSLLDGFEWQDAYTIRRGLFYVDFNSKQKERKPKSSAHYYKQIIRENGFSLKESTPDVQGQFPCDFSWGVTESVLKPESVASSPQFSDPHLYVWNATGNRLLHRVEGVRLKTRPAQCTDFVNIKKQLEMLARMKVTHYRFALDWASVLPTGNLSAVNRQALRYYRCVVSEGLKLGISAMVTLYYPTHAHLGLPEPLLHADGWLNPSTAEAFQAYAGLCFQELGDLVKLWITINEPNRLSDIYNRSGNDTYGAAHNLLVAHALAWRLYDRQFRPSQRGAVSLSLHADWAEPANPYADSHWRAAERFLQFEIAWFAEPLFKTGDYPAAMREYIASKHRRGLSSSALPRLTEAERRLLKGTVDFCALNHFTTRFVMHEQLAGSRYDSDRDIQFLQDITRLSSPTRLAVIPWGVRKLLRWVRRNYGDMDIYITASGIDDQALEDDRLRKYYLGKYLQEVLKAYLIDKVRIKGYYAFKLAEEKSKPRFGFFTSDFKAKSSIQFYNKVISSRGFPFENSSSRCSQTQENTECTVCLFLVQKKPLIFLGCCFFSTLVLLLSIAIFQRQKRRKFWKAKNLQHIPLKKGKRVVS

Row | Binder | koff [1] [s⁻¹] | Mean E max [2] [%] | Mean EC50 [2] [nM]
1 | B1 | 0.00011 | 108 | 0.133
2 | B2 | 0.00017 | 110 | 0.129
3 | B3 | 9.9e-05 | 107 | 0.134
4 | B4 | 9.9e-05 | 90 | 0.104
